Drawing on PMC11417369, “DNA sequence and chromatin differentiate sequence-specific transcription factor binding in the human malaria parasite Plasmodium falciparum”, this text covers binding signal for 15 molecules.

The target in this data set is T1, HDP1 homeodomain-like (Plasmodium falciparum, UniProt Q8IKH4 2990-3078).
T1 sequence: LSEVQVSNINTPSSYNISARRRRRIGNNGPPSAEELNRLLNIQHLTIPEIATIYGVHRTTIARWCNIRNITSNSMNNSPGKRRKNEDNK
As to the kind of experiment: gcPBM; about 25 ug protein; PBS, 1% milk, 0.2 mg/ml BSA, salmon testes DNA, 0.03% Triton X-100. The settings on record: tags: N-terminal GST (pGEX-4T-1), kept; chain copies: 2; label: surface-attached array probe.

B1: GTGCAC_negctrl_site551 (dsDNA)
DNA 1: AAAAGGAATATAATCATTCAAAAATATAATATATAT
DNA 2: ATATATATTATATTTTTGAATGATTATATTCCTTTT
As for B1, the binding signal was 6.36 ln median PBM intensity, better of two orientations.

B2: GTGCAC_negctrl_site541 (dsDNA)
DNA 1: TCCCCCTTTTTTTGATTTTTATCTTAATTCTAAAAG
DNA 2: CTTTTAGAATTAAGATAAAAATCAAAAAAAGGGGGA
In the case of B2, the binding signal was 6.28 ln median PBM intensity, better of two orientations.

B3: GTGCAC_negctrl_site362 (dsDNA)
DNA 1: TATTATATCTTATATGTATATTCCCACAAATTATAT
DNA 2: ATATAATTTGTGGGAATATACATATAAGATATAATA
With B3, the binding signal was 6.31 ln median PBM intensity, better of two orientations.

B4: GTGCAC_negctrl_site507 (dsDNA)
DNA 1: ATGTTGTTCATAAATATATTATTTTTAAATGTACAA
DNA 2: TTGTACATTTAAAAATAATATATTTATGAACAACAT
Consider B4, for which the binding signal is 6.37 ln median PBM intensity, better of two orientations.

B5: GTGCAC_negctrl_site358 (dsDNA)
DNA 1: TACTGTATTATAATTATGATTGACGAAATTAAAAAT
DNA 2: ATTTTTAATTTCGTCAATCATAATTATAATACAGTA
Take B5: the binding signal is 6.33 ln median PBM intensity, better of two orientations.

B6: GTGCAC_negctrl_site640 (dsDNA)
DNA 1: AGAAATATGTTGAAGCATTTATAATGTAGATATAAG
DNA 2: CTTATATCTACATTATAAATGCTTCAACATATTTCT
Turning to B6, the binding signal was 6.35 ln median PBM intensity, better of two orientations.

B7: GTGCAC_negctrl_site275 (dsDNA)
DNA 1: ATATTTTATCATGTTTAATATTTATGTGGACATAAA
DNA 2: TTTATGTCCACATAAATATTAAACATGATAAAATAT
In the case of B7, the binding signal was 6.34 ln median PBM intensity, better of two orientations.

B8: GTGCAC_negctrl_site486 (dsDNA)
DNA 1: TATTTATTATGATACTCATATTATTCTATGATTAAA
DNA 2: TTTAATCATAGAATAATATGAGTATCATAATAAATA
Regarding B8, the binding signal was 6.33 ln median PBM intensity, better of two orientations.

B9: GTGCAC_negctrl_site681 (dsDNA)
DNA 1: AAAGGTAAATGTAAATAAATAAATAATAAATATATA
DNA 2: TATATATTTATTATTTATTTATTTACATTTACCTTT
Take B9: the binding signal is 6.27 ln median PBM intensity, better of two orientations.

B10: GTGCAC_negctrl_site448 (dsDNA)
DNA 1: TCTTTTTAAATTACTATAATACATTCATAAATTATA
DNA 2: TATAATTTATGAATGTATTATAGTAATTTAAAAAGA
Regarding B10, the binding signal is 6.3 ln median PBM intensity, better of two orientations.

B11: GTGCAC_negctrl_site213 (dsDNA)
DNA 1: TTTAATCAATGATTTAATGAAAAAAGCAAAAAAAAA
DNA 2: TTTTTTTTTGCTTTTTTCATTAAATCATTGATTAAA
As to B11, the binding signal is 6.34 ln median PBM intensity, better of two orientations.

B12: GTGCAC_negctrl_site354 (dsDNA)
DNA 1: ATAAATTGAAGTAAATTTGACCTTTTTTTTTTTTTT
DNA 2: AAAAAAAAAAAAAAGGTCAAATTTACTTCAATTTAT
B12: the binding signal was 6.29 ln median PBM intensity, better of two orientations.

B13: GTGCAC_negctrl_site532 (dsDNA)
DNA 1: AATAATTTTTAAATATAAACATTTTTTTTTTTTTTT
DNA 2: AAAAAAAAAAAAAAATGTTTATATTTAAAAATTATT
With B13, the binding signal was 6.29 ln median PBM intensity, better of two orientations.

B14: GTGCAC_negctrl_site465 (dsDNA)
DNA 1: AAAAAATGTAAATATAAACAACCAAAGGGGGTATAC
DNA 2: GTATACCCCCTTTGGTTGTTTATATTTACATTTTTT
On to B14, for which the binding signal is 6.37 ln median PBM intensity, better of two orientations.

B15: GTGCAC_negctrl_site655 (dsDNA)
DNA 1: TCTTTTAACAAATAATAAGCTAATTTATATTATTAT
DNA 2: ATAATAATATAAATTAGCTTATTATTTGTTAAAAGA
Turning to B15, the binding signal is 6.28 ln median PBM intensity, better of two orientations.
